Kd data for three molecules are collected here from PMC11741606 (2025).

Assay [1] addresses T1, TGEV RBD (receptor-binding domain of the transmissible gastroenteritis coronavirus spike protein) (transmissible gastroenteritis …).
T1 chain: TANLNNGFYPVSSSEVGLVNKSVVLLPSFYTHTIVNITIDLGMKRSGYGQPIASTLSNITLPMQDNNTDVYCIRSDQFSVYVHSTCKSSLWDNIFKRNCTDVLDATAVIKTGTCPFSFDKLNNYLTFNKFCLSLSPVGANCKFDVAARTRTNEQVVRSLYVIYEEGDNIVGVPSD
Description: SPR.

Assay [2] deals with Arabian camel aminopeptidase N ectodomain fused with the Fc domain of human IgG (Arabian camel (Camelus dromedarius)). Description: SPR. On the technique in general: SPR reads the build-up and loss of mass on a sensor chip optically.

B1: bovine aminopeptidase N ectodomain fused with the Fc domain of human IgG (Fc fusion)
chain: YAQEKNKNAERGTAAPTSPTGPTTTSATTLDQSKPWNRYRLPTTLLPDSYRVTLRPYLTPNNNGLYIFTGSSTVRFTCKEPTDVIIIHSKKLNYTQHSGHLAALKGVGDTQAPEIDRTELVLLTEYLVVHLKSSLEAGKTYEMETTFQGELADDLAGFYRSEYMDGNVKKVLATTQMQSTDARKSFPCFDEPAMKATFNITLIHPKDLTALSNMPPKGPSVPFDGDSNWSVTEFETTPVMSTYLLAYIVSEFTSVESVAPNDVQIRIWARPKATADNHGLYALNVTGPILNFFANHYNTAYPLPKSDQIALPDFNAGAMENWGLVTYRENALLYDPQSSSSSNKERVVTVIAHELAHQWFGNLVTLAWWNDLWLNEGFASYVEYLGADYAEPTWNLKDLMVPNDVYSVMAVDALVTSHPLTTPANEVNTPAQISEMFDTISYSKGASVIRMLSNFLTEDLFKKGLASYLQTFAYQNTTYLNLWEHLQMAVENQLSIRLPDTVSAIMDRWTLQMGFPVITVDTNTGTISQKHFLLDPNSTVTRPSQFNYLWIVPISSIRNGQPQEHYWLRGEERNQNELFKAAADDWVLLNINVTGYYQVNYDENNWKKIQNQLMSRRENIPVINRAQVIYDSFNLASAHMVPVTLALNNTLFLKNEMEYMPWQAAVSSLNYFKLMFDRTEVYGPMQNYLKNQVEPIFLYFENLTKNWTEIPENLMDQYSEINAISTACSNGLPKCEELAKTLFNQWMNNPNVNPIDPNLRSTIYCNAIAQGGQEEWDFAWNQLQQAELVNEADKLRSALACTNHVWLLNRYLSYTLNPDLIRKQDATSTITSIASNVIGQSLAWDFIRSNWKKLFEDYGGGSFSFSNLIQGVTRRFSTEFELQQLEEFKENNMDVGFGSGTRALEQALEKTKANINWVKENKEVVLNWFKDHS
modifications: Wild type. Position 797 in the paper is dog APN alignment numbering, not bovine numbering. Limits from TOPO_DOM extracellular. hFc carrier omitted. N-glycosylated (HEK293T).
By Kd is commonly meant the equilibrium constant for the complex coming apart. On to B1, for which, in assay [1], the Kd was 1660 nM.

B2: PDCoV RBD (receptor-binding domain of the porcine deltacoronavirus spike protein) (domain or fragment)
chain: VTLPKLPELEVVQLNISAHMDFGEARLDSVTINGNTSYCVTKPYFRLETNFMCTGCTMNLRTDTCSFDLSAVNNGMSFSQFCLSTESGACEMKIIVTYVWNYLLRQRLYVTAVEGQTHTGTTSVHATDTSSV
B2 gave a Kd in assay [2] of 10800 nM.

B3: cat aminopeptidase N ectodomain fused with the Fc domain of human IgG (Fc fusion)
chain: YSQEKNRSTESSTAASTAAPTGPTTTVATTLDQSKPWNVYRLPKTLIPDSYNVTLRPYLTPNNKGLYVFTGTNIVRFTCKESTNIVIIHSKRLNYTSHQGHMVALSGVGGFHPQPVIVRTELVELTEYLVVHLQEPLVAGRQYEMNSEFQGELADDLAGFYRSEYMENGVKKVLATTHMQATEARKSFPCFDEPAMKATFNITIIHPNNLVALSNMLPRGPSVPFGEDPTWKVTEFETTPIMSTYLLAYIVSEFSYVETRAPSGVLIRIWARPSAINQGHGDYALKVTGPILDFFSQHYDTPYPLNKSDQIALPDFNAGAMENWGLVTYRESALLYDRQSSSSGNQERVVTVIAHELAHQWFGNLVTLEWWNDLWLNEGFASYVEYLGADFAEPTWNLKDLMVLNDVYRVMAVDALASSHPLSTPASEINTPAQISEVFDSISYSKGASVLRMLSNFLTEDLFKMGIASYLHTYKYGNTIYLNLWEHLQQVVDKQPTIKLPDTVSAIMDRWILQMGFPVITVDTQTGTISQQHFLLDPQSVVTRPSQFNYLWIVPISSVRSGSPQAHYWLPGVEKAQNDLFKTTANDWVLLNLNVTGYYLVNYDNENWKKIQTQLQTDLSVIPVINRAQVIHDAFNLASAQKVPVTLALNNTLFLIQETEYMPWQAALSSLSYFKLMFDRSEVYGPMKRYLKKQVTPLFNHFERVTKNWTDHPQTLMDQYSEINAVSTACSYGVPECEKLAATLFAQWKKNPQNNPIHPNLRSTVYCNAIAQGGEEEWNFVWEQFLKAELVNEADKLRGALACSNQVWILNRFLSYTLDPNLIRKQDVTSTLSSISSNVVGQTLVWDFVQSNWKKLFQDYGTGSFSFSNLIQAVTRRFSTEFELQQLEQFKKNNMDTGFGSATRALEQALEKTKANLKWVKENKDVVLRWFTENS
As for B3, the Kd in assay [1] is 35.6 nM.
